Consider 5 molecules from patent US20060121580A1.

Assay [1] has as its target SARS-CoV strain Frankfurt 2 (infectious virus). Nature of the assay: cell-based or functional assay.
For assay [2], the target named is SARS-CoV strain Frankfurt 1 (infectious virus). Nature of the assay: cell-based or functional assay.
Assay [3] addresses fetal bovine serum (FBS), 10% preparation. Briefly: phage ELISA on coated 10% FBS. A general note: An ELISA detects its analyte on a solid surface through an enzyme-linked reagent.

B1: bivalent scFv pyBi03-015C02 (scFv)
scFv: AMAEVQLVESGGGVVRPGGSLRLSCAASGFTFDDYGMSWVRQAPGKGLEWVSGINWNGGSTGYADSVKGRFTISRDNAKNSLYLQMNSLRAEDTAVYYCARGLSLRPWGQGTLVTVSRGGGGSGGGGSGGGGSSELTQDPAVSVALGQTVRITCQGDSLRSYYASWYQQKPGQAPVLVIYGKNNRPSGIPDRFSGSSSGNTASLTITGAQAEDEADYYCNSRDSSGNHVVFGGGTKLTVLGAAA
Molecule B1 had a Neutralization titer for Frankfurt 2 strain (dilution factor) in assay [1] of less than 20. In assay [2], this molecule showed a Neutralization titer for Frankfurt 1 strain (dilution factor) of less than 20.

B2: single-chain phage antibody SC03-015 (scFv)
scFv: B1 scFv
In assay [3], B2 registered an OD492 nm of 0.077 OD492 nm.

B3: bivalent scFv pyBi03-012C02 (scFv)
scFv: AMAQVQLVQSGAEVKKPGASVKVSCKASGYTFTSYGISWVRQAPGQGLEWMGWISAYNGNTNYAQKLQGRVTMTTDTSTSTAYMELSSLRSDDTAVYYCARMFRKSSFDSWGQGTLVTVSRGGGGSGGGGSGGGGSSELTQDPAVSVALGQTVRITCQGDSLRSYYASWYQQKPGQAPVLVIYGKNNRPSGIPDRFSGSSSGNTASLTITGAQAEDEADYYCNSRDSSGNHVVFGGGTKLTVLGAAA
In assay [1], B3 came in with a Neutralization titer for Frankfurt 2 strain (dilution factor) of less than 20. Also, in assay [2], the Neutralization titer for Frankfurt 1 strain (dilution factor) was less than 20.

B4: single-chain phage antibody SC03-012 (scFv)
scFv: B3 scFv
Turning to B4, in assay [3], the OD492 nm stood at 0.1 OD492 nm.

B5: single-chain phage antibody SC03-006 (scFv)
scFv: SMAEVQLVESGGGLVQPGGSLRLSCAASGFTFSGYPMHWVRQAPGKGLEWVAVISYDGSNKYYADSVKGRFTISRDNSKNTLYLQMNSLRAEDTAVYYCAKDGSPRTPSFDYWGQGTLVTVLEGTGGSGGTGSGTGTSELDIQMTQSPHSLSASVGDRVTITCRASQGISNYLAWYQQKPGKVPKLLIYAASTLQSGVPSRFSGSGSGTDFTLTISSLQPEDVGVYYCQQRFRTPVTFGQGTKLEIKRAAA
B5 had an OD492 nm in assay [3] of 0.086 OD492 nm.
